Data taken from publication PMC2115308.
Several values for one entry are separate records, joined by “and”; a condition that tells them apart may be missing. Identical values can stand only once. Like-named read-outs stand apart in the source and are kept apart here. No end group written: not given here. *: point of attachment. 125I = [125I]*

How the values were obtained:
[1] = molecular target: Arg-Gly-Asp-directed receptors on LiBr melanoma cells (human (endogenous in LiBr)); test: radioligand binding
[2] = molecular target: Arg-Gly-Asp-directed receptors on LiBr melanoma cells (human (endogenous in LiBr)); test: radioligand binding; remark: listed apart in the source

specific cpm [1]: 2660 cpm
specific cpm [2]: 637 cpm and 494 cpm
Binder: KY(125I)GRGDSP [iodinated synthetic peptide KYGRGDSP]
